Results on 75 variants are retold here after doi:10.1101/2021.08.20.457142.

To fix the notation:
B1: MKK7 D-site peptide (second D-site) / JNK1 alpha1 (MAPK8 isoform 1) L198A, full length (parent complex)
chain 1: SQPQRPRPTLQLPLANEAFEQP
chain 2: MSRSKRDNNFYSVEIGDSTFTVLKRYQNLKPIGSGAQGIVCAAYDAILERNVAIKKLSRPFQNQTHAKRAYRELVLMKCVNHKNIIGLLNVFTPQKSLEEFQDVYIVMELMDANLCQVIQMELDHERMSYLLYQMLCGIKHLHSAGIIHRDLKPSNIVVKSDCTLKILDFGLARTAGTSFMMTPYVVTRYYRAPEVIAGMGYKENVDLWSVGCIMGEMVCHKILFPGRDYIDQWNKVIEQLGTPCPEFMKKLQPTVRTYVENRPKYAGYSFEKLFPDVLFPADSEHNKLKASQARDLLSKMLVIDASKRISVDEALQHPYINVWYDPSEAEAPPPKIPDKQLDEREHTIEEWKELIYKEVMDLEERTKNGVIRGQPSPLAQVQQ

In the assay the parent is B1.
Consider chain 1 T9Q, for which the screen value is 0.994 Z-score of the enrichment rate within one screen of 711 sequences.
The result for chain 1 T9F reads 1.43 Z-score of the enrichment rate within one screen of 711 sequences; that for chain 1 T9W, 1.21 Z-score of the enrichment rate within one screen of 711 sequences.
The result for chain 1 N16P reads 0.929 Z-score of the enrichment rate within one screen of 711 sequences.
The same measure for chain 1 N16G: 1.5 Z-score of the enrichment rate within one screen of 711 sequences; for chain 1 N16W: 2.16 Z-score of the enrichment rate within one screen of 711 sequences.
Regarding chain 1 N16L, the screen value is 1.52 Z-score of the enrichment rate within one screen of 711 sequences.
The result for chain 1 N16V reads 1.95 Z-score of the enrichment rate within one screen of 711 sequences; that for chain 1 N16E, 1.28 Z-score of the enrichment rate within one screen of 711 sequences; that for chain 1 N16A, 1.29 Z-score of the enrichment rate within one screen of 711 sequences.
The same measure for chain 1 N16C: 1.62 Z-score of the enrichment rate within one screen of 711 sequences; for chain 1 N16H: 1.43 Z-score of the enrichment rate within one screen of 711 sequences; for chain 1 N16T: 1.34 Z-score of the enrichment rate within one screen of 711 sequences.
The same measure for chain 1 Q11A, chain 1 P13A: 1.38 Z-score of the enrichment rate within one screen of 711 sequences; for chain 1 R7A, chain 1 N16A: 0.334 Z-score of the enrichment rate within one screen of 711 sequences.
Consider chain 1 Q4A, chain 1 R7A, for which the screen value was 0.0948 Z-score of the enrichment rate within one screen of 711 sequences.
Turning to chain 1 Q4A, chain 1 L10A, the screen value is -0.57 Z-score of the enrichment rate within one screen of 711 sequences.
The result for chain 1 R5A, chain 1 L14A reads -0.406 Z-score of the enrichment rate within one screen of 711 sequences; that for chain 1 L12A, chain 1 P13A, -0.381 Z-score of the enrichment rate within one screen of 711 sequences.
The same measure for chain 1 P3A, chain 1 N16A: 1.34 Z-score of the enrichment rate within one screen of 711 sequences; for chain 1 P8A, chain 1 L10A: -0.67 Z-score of the enrichment rate within one screen of 711 sequences.
For chain 1 L10A, chain 1 L14A, the screen value was -0.882 Z-score of the enrichment rate within one screen of 711 sequences.
On to chain 1 R7F, for which the screen value was 0.186 Z-score of the enrichment rate within one screen of 711 sequences.
The result for chain 1 R7A reads 0.016 Z-score of the enrichment rate within one screen of 711 sequences.
The result for chain 1 R7G reads -0.481 Z-score of the enrichment rate within one screen of 711 sequences; that for chain 1 R7L, 0.372 Z-score of the enrichment rate within one screen of 711 sequences.
In the case of chain 1 R7K, the screen value is 0.788 Z-score of the enrichment rate within one screen of 711 sequences.
The result for chain 1 R7M reads 0.323 Z-score of the enrichment rate within one screen of 711 sequences; that for chain 1 R7Q, -0.0451 Z-score of the enrichment rate within one screen of 711 sequences.
The result for chain 1 R7V reads 0.194 Z-score of the enrichment rate within one screen of 711 sequences; that for chain 1 R7I, 0.221 Z-score of the enrichment rate within one screen of 711 sequences.
The result for chain 1 R7P reads 0.478 Z-score of the enrichment rate within one screen of 711 sequences; that for chain 1 R7N, -0.0352 Z-score of the enrichment rate within one screen of 711 sequences.
In the case of chain 1 R7E, the screen value is -0.371 Z-score of the enrichment rate within one screen of 711 sequences.
As to chain 1 R7A, chain 1 L14A, the screen value is -0.345 Z-score of the enrichment rate within one screen of 711 sequences.
As for chain 1 P6F, the screen value was 1.06 Z-score of the enrichment rate within one screen of 711 sequences.
The same measure for chain 1 P6C: 0.713 Z-score of the enrichment rate within one screen of 711 sequences; for chain 1 P6Q: 1.26 Z-score of the enrichment rate within one screen of 711 sequences.
Consider chain 1 P6T, for which the screen value was 1.07 Z-score of the enrichment rate within one screen of 711 sequences.
The same measure for chain 1 P6A: 1.29 Z-score of the enrichment rate within one screen of 711 sequences.
The same measure for chain 1 P6L: 1.25 Z-score of the enrichment rate within one screen of 711 sequences.
The same measure for chain 1 P6V: 0.968 Z-score of the enrichment rate within one screen of 711 sequences; for chain 1 P6H: 1.12 Z-score of the enrichment rate within one screen of 711 sequences; for chain 1 R5A, chain 1 P8A: 0.293 Z-score of the enrichment rate within one screen of 711 sequences.
For chain 1 Q4A, chain 1 P8A, the screen value is 0.697 Z-score of the enrichment rate within one screen of 711 sequences.
The result for chain 1 L14T reads 0.9 Z-score of the enrichment rate within one screen of 711 sequences; that for chain 1 L14A, 0.48 Z-score of the enrichment rate within one screen of 711 sequences; that for chain 1 L14I, 1.9 Z-score of the enrichment rate within one screen of 711 sequences.
chain 1 L14D: the screen value was 0.409 Z-score of the enrichment rate within one screen of 711 sequences.
The same measure for chain 1 L14K: 0.866 Z-score of the enrichment rate within one screen of 711 sequences; for chain 1 L14F: 1.33 Z-score of the enrichment rate within one screen of 711 sequences.
The result for chain 1 L14R reads 0.833 Z-score of the enrichment rate within one screen of 711 sequences.
The result for chain 1 R5A, chain 1 R7A reads -0.162 Z-score of the enrichment rate within one screen of 711 sequences.
Regarding chain 1 Q4A, chain 1 R5A, the screen value is 0.359 Z-score of the enrichment rate within one screen of 711 sequences.
The same measure for chain 1 P3A, chain 1 P6A: 0.9 Z-score of the enrichment rate within one screen of 711 sequences; for chain 1 P3A, chain 1 R5A: 0.535 Z-score of the enrichment rate within one screen of 711 sequences; for chain 1 P8Q: 0.499 Z-score of the enrichment rate within one screen of 711 sequences.
The same measure for chain 1 P8V: 0.848 Z-score of the enrichment rate within one screen of 711 sequences; for chain 1 P8L: 1.88 Z-score of the enrichment rate within one screen of 711 sequences.
Turning to chain 1 P8I, the screen value is 0.845 Z-score of the enrichment rate within one screen of 711 sequences.
The same measure for chain 1 P8W: 0.971 Z-score of the enrichment rate within one screen of 711 sequences; for chain 1 P8K: 1.01 Z-score of the enrichment rate within one screen of 711 sequences.
Turning to chain 1 P8M, the screen value was 2.24 Z-score of the enrichment rate within one screen of 711 sequences.
Take chain 1 P8C: the screen value was 0.83 Z-score of the enrichment rate within one screen of 711 sequences.
The same measure for chain 1 P8N: 0.584 Z-score of the enrichment rate within one screen of 711 sequences; for chain 1 P8F: 1.67 Z-score of the enrichment rate within one screen of 711 sequences; for chain 1 Q11Y: 2.41 Z-score of the enrichment rate within one screen of 711 sequences.
The result for chain 1 Q11W reads 2.17 Z-score of the enrichment rate within one screen of 711 sequences; that for chain 1 Q11I, 1.51 Z-score of the enrichment rate within one screen of 711 sequences; that for chain 1 Q11N, 1.79 Z-score of the enrichment rate within one screen of 711 sequences.
For chain 1 Q11T, the screen value is 2.32 Z-score of the enrichment rate within one screen of 711 sequences.
The same measure for chain 1 Q11G: 0.875 Z-score of the enrichment rate within one screen of 711 sequences; for chain 1 Q11C: 1.43 Z-score of the enrichment rate within one screen of 711 sequences.
The same measure for chain 1 Q11E: 1.43 Z-score of the enrichment rate within one screen of 711 sequences.
Consider chain 1 Q11H, for which the screen value was 1.89 Z-score of the enrichment rate within one screen of 711 sequences.
